The experiment deals with β2-adrenergic receptor (β2AR) (human) (UniProt P07550).

Results on 1 molecule are retold here after article PMC11048008.

For the molecule AITTGGNTYYANSVKGRFTISRDNA [CDR2-NDP P4 (25-amino-acid nanobody-derived peptide from the CDR2 of Nb71)], the cAMP formation (HitHunter cAMP assay) in β2AR-transfected HEK-293 cells, P4 alone 10^-9 to 10^-4 M, no isoproterenol: EC50 came to 210 nM; the cAMP formation (HitHunter cAMP assay) in β2AR-transfected HEK-293 cells, P4 alone 10^-9 to 10^-4 M, no isoproterenol: increase in cAMP as percent of the maximum response to isoproterenol is < 20%; the decrease of isoproterenol potency in the cAMP assay by 50 µM P4 in β2AR-transfected HEK-293 cells (pair interfered with: agonist-activated β2AR and endogenous Gαs) is < 20 fold; the reduction of the maximal isoproterenol-induced cAMP level by 50 µM P4 in β2AR-transfected HEK-293 cells (pair interfered with: agonist-activated β2AR and endogenous Gαs) is 40%.
